B1: TPR t1 (parent)
chain: GACCAAUCUGCCCUCAGAGCUCGAGAACAUCUUCGGAUGCAGAGGAGGCAGGCUUCGGUGGCGCGAUAGCGCCAACGUCCUCAACCUCCAAUGCAUCCCACCACAUGAUGAUGCCUGAAGAGCCUUGGUUUUUUG

Variants of: B1
Assay: polymerase ribozyme fitness, log enrichment relative to wild type (log ratio); higher = more active; in vitro selection for triplet polymerase activity
In short: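 PCR was used to build mutant libraries for each subunit of a heterodimeric triplet polymerase ribozyme, which were then transcribed. A single in vitro selection round, in triplicate, used a frozen incubation at −7 °C and recovered extended constructs by gel excision, streptavidin beads and RT-PCR. Fitness is the logarithm of genotype enrichment relative to wild-type enrichment, averaged over replicates with inverse-variance weights. The logarithm is base 2, and after Illumina sequencing only genotypes with ≥10 input reads and ≥1 read per output were kept.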

| Variant | polymerase ribozyme fitness (log ratio) |
| --- | --- |
| GACCAAUCUGCCCUCAGAGCUCGAGAACAUCUUGGGAUGCAGAGGAGGCAGGCUUCGGUGGCGCGAUAGUGCCAACGUCCUCAACCUCCAAUGCAACCCACCUCAUGAUGAUGCCUGAAGCGCCUUGGUUUCUUG [C34G C70U U96A A103U A121C U132C] | -7.51 |
| GACCAAUCUGCCCUCAGAGCUCGAGAACAUCUUGGGAUGCAGAGGAGGCAGGCUUCGGUGGCGCGAUAGCGCAAACGUCCUCAACCUCCAAUGCAUCCCACCACAUGAUGAUGCCUGAAGAGCCUUGGUUUUUUG [C34G C73A] | -5.35 |
| GACCAAUCUGCCCUCAGAGCUCGAGAACAUCUUGGGAUGCAGAGGAGGCAGGCUUCGGUGGCGCGAUAGCGCCAACGUUCUCAACCUCCAAUGCAUCCCACCACAUGAUGAUGCCUGAAGAGCCUUGGUUUUUUG [C34G C79U] | -5.43 |
| GACCAAUCUGCCCUCAGAGCUCGAGAACAUCUUGGGAUGCAGAGGAGGCAGGCUUCGGUGGCGCGAUAGCGCCAACGUCUUCAACCUCGAAUGCAUCCCACCACAUGAUGAUGCCUGAACAGCCUUGGCUUUUUG [C34G C80U C89G G120C U129C] | -6.96 |
| GACCAAUCUGCCCUCAGAGCUCGAGAACAUCUUGGGAUGCAGAGGAGGCAGGCUUCGGUGGCGCGAUAGCGCCAACGUCCUCAACCUCUAAUGCAUCCCACCACAUGAUGAUGCCUGAAGAGCCUUGGUUUUUUG [C34G C89U] | -7.42 |
| GACCAAUCUGCCCUCAGAGCUCGAGAACAUCUUGGGAUGCAGAGGAGGCAGGCUUCGGUGGCGCGAUAGCGCCAACGUCCUCAACCUCCAAUGCAUCCUACCACAUGAUGAUGCCUGAAGAGCCUUGGUAUUUUG [C34G C99U U130A] | -4.6 |
| GACCAAUCUGCCCUCAGAGCUCGAGAACAUCUUGGGAUACAGAGGAGGCAGGCUUAGGUGGCGCGAUAUCGCCAACGUACUCAACCUCCAAUGCAUCCCACCUGAUGAUAAUGCGUGAAGAGCCUUGGUUUUUUG [C34G G39A C56A G69U C79A A103U C104G G110A C115G] | -7.05 |
| GACCAAUCUGCCCUCAGAGCUCGAGAACAUCUUGGGAUGCAGAGGAGGCAUGCUUCGGUGGCGCGAUAGCGCCAACGUCCUCAACCUCCAAUGCAUCCCACCAUAUGAUGAUGCCUGAAGAGCCUUGGUUUUUUG [C34G G51U C104U] | -6.64 |
| GACCAAUCUGCCCUCAGAGCUCGAGAACAUCUUGGGAUGCAGAGGAGGCAGGCUUCGGUAGCGCGAUAGAGCCAACGUCCUCAACCUCCAAUGCAUCCCACCACUUGAUGAUGCCUUAAGAGCCUAGGAUUUGUG [C34G G60A C70A A105U G117U U126A U129A U133G] | -6.69 |
| GACCAAUCUGCCCUCAGAGCUCGAGAACAUCUUGGGAUGCAGAGGAGGCAGGCUUCGGUGACGCGAUAGCGCCAACGUCCUCAACCUCCAAUGCAUCCCACCACAUGAUGAUUCCUGAAGAUCCUUGGUUUUUUG [C34G G61A G113U G122U] | -7.08 |
| GACCAAUCUGCCCUCAGAGCUCGAGAACAUCUUGGGAUGCAGAGGAGGCAGGCUUCGGUGGCGCGAUAUCGCCAACGUCCUCAACCUCCAAUGCAUCCCACCACAUGAUGAUGCCUGAAGAGCCUUGGUUUUUUG [C34G G69U] | -2.21 |
| GACCAAUCUGCCCUCAGAGCUCGAGAACAUCUUGGGAUGCAGAGGAGGCAGGCUUCGGUGGCGCGAUAUCGCCAACGUCCUCAACCUCCAAUGCAUCCCACCACAUGAUGAUGCCUGAAGAGACUUGGUUUUUUG [C34G G69U C123A] | -2.45 |
| GACCAAUCUGCCCUCAGAGCUCGAGAACAUCUUGGGAUGCAGAGGAGGCAGGCUUCGGUGGCGCGAUAGCGCCAACGUCCUCAACCUCCAAUGCAUCCCACCACAUGAUGAUGCCUGAACAGCCUUGGUUUUUUG [C34G G120C] | -4.78 |
| GACCAAUCUGCCCUCAGAGCUCGAGAACAUCUUGGGAUGCAGAGGAGGCAGGCUUCGGAGGCGCGAUAGCGCCAACGUCCUCAACCUCCAAUGCAUCCCACCACAUGAUGAUGCCUUAAGAGCCUUGGGUUUUUG [C34G U59A G117U U129G] | -8.01 |
| GACCAAUCUGCCCUCAGAGCUCGAGAACAUCUUGGGAUGCAGAGGAGGCAGGCUUCGGUGGCGCGAUAGCGCCAACGUCCUCAACCACCAAUGCAUCCCACCACAUGAUGAUGCCUGAAGAGCCUUGGUUUUUUG [C34G U87A] | -5.65 |
| GACCAAUCUGCCCUCAGAGCUCGAGAACAUCUUGGGAUGCAGAGGAGGCAGGCUUCGGUGGCGCGAUAGCGCCAACGUCCUCAACCUCCAAUGCAUCCCACCACAAGAUGAUGCCUGAAGAGCCUUGGUUUUUUG [C34G U106A] | -4.72 |
| GACCAAUCUGCCCUCAGAGCUCGAGAACAUCUUUGGAUGCAGAGGAGGCUGGCUUCGGUGGCGCGAUAGCGCCAACGUCCUCAACCUCCAAUGCAUCCCACCACAUGAUGAUGCCUGAAGAGCCUUGGUUUUUUG [C34U A50U] | -3.8 |
| GACCAAUCUGCCCUCAGAGCUCGAGAACAUCUUUGGAUGCAGAGGAGGCUGGCUUCGGUGGCGCGAUAGCGCCAACGUCCUCAACCUCCAAUGCAUCCCACUACAUGAAGAUGCCUGAAGAGCUUUGGUUUUUUG [C34U A50U C102U U109A C124U] | -5.84 |
| GACCAAUCUGCCCUCAGAGCUCGAGAACAUCUUUGGAUGCAGAGGAGGCAGGCUUCGGUGGCGCGAUAGCGCCAACGUCCUCCACCUCCAAUGCAUCCCACCACAUGAUGAUGCCUGAAGAGCCUUGGUUUUUUG [C34U A83C] | -5.74 |
| GACCAAUCUGCCCUCAGAGCUCGAGAACAUCUUUGGAUGUAAGGGAGGCAGGCUUCGGUGGCGCGAUAGCGCCAACGUCCUCAACCUCCAAUGCAUCCCACCAAAUGAAGAUGCCUGAAGAGCCUUGGUUUUUUA [C34U C40U G42A A43G C104A U109A G135A] | -4.93 |
| GACCAAUCUGCCCUCAGAGCUCGAGAACAUCUUUGGAUGCAGAGGAGGCAGGUUUUGGUGGCGCGAUAGCGCCAACGUCCUCAACCUCCAAUGCAUCCCACCACAUGAUGAUGCCUGAAGAGCCUUGGUUUUUUG [C34U C53U C56U] | -5.01 |

| Variant | polymerase ribozyme fitness (log ratio) |
| --- | --- |
| GACCAAUCUGCCCUCAGAGCUCGAGAACAUCUUUGGAUGCAGAGGAGGCAGGCUUUGGUGGCGCGAUAGCGCCAACGUCCUCAACCUCCAAUGCAUCCCACCACAUGAUGAUGCCUGAAGAGCCUUGGUUUUUUG [C34U C56U] | -4.1 |
| GACCAAUCUGCCCUCAGAGCUCGAGAACAUCUUUGGAUGCAGAGGAGGCAGGCUUCGGUGGCGUGAUAGCGCCAACGUCCUCAACCUCCAAUGCAUCCCACCACAUGAUGAUGCCUGAAGAGCCUUGGUUUUUUG [C34U C64U] | -3.93 |
| GACCAAUCUGCCCUCAGAGCUCGAGAACAUCUUUGGAUGCAGAGGAGGCAGGCUUCGGUGGCGCGAUAGUGCCAACGUCCUCAACCUCCAAUGCAUCCCACCACAUGAUGAUGCCUGAAGAGCCUUGGUUUUUUG [C34U C70U] | -5.65 |
| GACCAAUCUGCCCUCAGAGCUCGAGAACAUCUUUGGAUGCAGAGGAGGCAGGCUUCGGUGGCGCGAUAGCGACAACGUCCUCAACCUCCAAUGCAUCCCACCACAUGAUGAUGCCUGAAGAGCCUUGGUUUUUUG [C34U C72A] | -3.94 |
| GACCAAUCUGCCCUCAGAGCUCGAGAACAUCUUUGGAUGCAGAGGAGGCAGGCUUCGGUGGCGCGAUAGCGUCAACGUCCUCAACCUCCAAUGCAUCCCACCACAAGAUGAUGCCUGAAGAGCCUUGGUUUUUUG [C34U C72U U106A] | -4.34 |
| GACCAAUCUGCCCUCAGAGCUCGAGAACAUCUUUGGAUGCAGAGGAGGCAGGCUUCGGUGGCGCGAUAGCGCCAACGUCCUCAAACUCCAAUGCAUCCCACCACAUGAUGUUGCCUGAAGAGCCUUGGUUUUUUG [C34U C85A A111U] | -5.33 |
| GACCAAUCUGCCCUCAGAGCUCGAGAACAUCUUUGGAUGCAGAGGAGGCAGGCUUCGGUGGCGCGAUAGCGCCAACGUCCUCAACUUCCAAUGCAUCCCACCAUAUGAUGAUGUCUGAAGAGCCUUGGUUUUUUG [C34U C86U C104U C114U] | -4.34 |
| GACCAAUCUGCCCUCAGAGCUCGAGAACAUCUUUGGAUGCAGAGGAGGCAGGCUUCGGUGGCGCGAUAGCGCCAACGUCCUCAACCUCCAAUGCAUCCCAACACAUGAUGAUGCCUGAAGAGCCUUGGUUUUUUG [C34U C101A] | -4.07 |
| GACCAAUCUGCCCUCAGAGCUCGAGAACAUCUUUGGAUGCAGAGGAGGCAGGCUUCGGUGGCGCGAUAGCGCCAACGUCCUCAACCUCCAAUGCAUCCCACCACAUGAUGAUGUCUGAAGAGCCUUGGUUAUUUG [C34U C114U U131A] | -4.04 |
| GACCAAUCUGCCCUCAGAGCUCGAGAACAUCUUUGGAUGCAGACGAGGCAGGCUUCGGUGGCGCGAUAGCGCCAACGUCCUCAACCACGAAUGCAUCCCACCACAUGAUGAUGCAUGAAGAGCCUUGGUUUUUUG [C34U G44C U87A C89G C115A] | -4.92 |
| GACCAAUCUGCCCUCAGAGCUCGAGAACAUCUUUGGAUGCAGAGGAAGCAGGCUUCGGUGGCGCGAUAGCGCCAACGUCCUCAACCUCCAAUGCAUCCCACCACAUGAUGAUGCCUGAAGAGCCUUGGUUUUUUG [C34U G47A] | -4.25 |
| GACCAAUCUGCCCUCAGAGCUCGAGAACAUCUUUGGAUGCAGAGGAGGCAGUCUUCGGUGGCGCGAUACCGCCAACGUGCUCAACCUCCAAUGCAUCCCGCCACAUGAUGAUGUCUGAAGAGCCUUGGUUUUUUG [C34U G52U G69C C79G A100G C114U] | -5.24 |
| GACCAAUCUGCCCUCAGAGCUCGAGAACAUCUUUGGAUGCAGAGGAGGCAGGCUUCGGUUGCGCGAUAGCGCCAACGUCCUCAACCUCCAAUGCAUCCUACCACAUGAUGAUGCCUGAAGAGCCUUGGUUUUUUG [C34U G60U C99U] | -3.7 |
| GACCAAUCUGCCCUCAGAGCUCGAGAACAUCUUUGGAUGCAGAGGAGGCAGGCUUCGGUGACGCGAUAGCGCCAACGUCCUCAACCUCCAAUGCAUCCCACCACAUGAUGAUGCCUGAAGAGCCUUGGUUUUUUG [C34U G61A] | -4.7 |
| GACCAAUCUGCCCUCAGAGCUCGAGAACAUCUUUGGAUGCAGAGGAGGCAGGCUUCGGUGGCACGAUAGCGCCAACGUCCUCAACCUCCAAUGCAUCCCACCACAUGAUGAUGCCUGAAGAGCCUUGGUUUUUUG [C34U G63A] | -3.64 |
| GACCAAUCUGCCCUCAGAGCUCGAGAACAUCUUUGGAUGCAGAGGAGGCAGGCUUCGGUGGCCCGAUAGCGCCAACGUCCUCAACCUCCAAUGCAUCCCACCACAUGAUGCUGCCUGAAGAGCCUUGGUUUAUUG [C34U G63C A111C U132A] | -4.98 |
| GACCAAUCUGCCCUCAGAGCUCGAGAACAUCUUUGGAUGCAGAGGAGGCAGGCUUCGGUGGCUCGAUAGCGCCAACGUCCUCAACCUCCAAUGCAUCCCACCACAUGAUGAUGCCUGAAGAGCCUUGGUUUUUUG [C34U G63U] | -4.85 |
| GACCAAUCUGCCCUCAGAGCUCGAGAACAUCUUUGGAUGCAGAGGAGGCAGGCUUCGGUGGCGCGAUAGCACCAACGUCCUCAACCUCCAAUGCAUCCCACCACAUGAUGAUGCCUGAAGAGCCUUGGUUUUUUG [C34U G71A] | -5.88 |
| GACCAAUCUGCCCUCAGAGCUCGAGAACAUCUUUGGAUGCAGAGGAGGCAGGCUUCGGUGGCGCGAUAGCGCCAACGUCCUCAACCUCCAAUGCAUCCCACCACAUGAUUAUGCCUGAAGAGCCUUGGUUUUUUG [C34U G110U] | -4.07 |
| GACCAAUCUGCCCUCAGAGCUCGAGAACAUCUUUGGAUGCAGAGGAGGCAGGCUUCGGUGGCGCGAUAGCGCCAACGUCCUCAACCUCCAAUGCAUCCCACCACAUGAUGAUCCCUGAAGAGCCUUGGUUUUUUG [C34U G113C] | -4.95 |
| GACCAAUCUGCCCUCAGAGCUCGAGAACAUCUUUGGAUGCAGAGGAGGCAGGCUUCGGUGGCGCGAUAGCGCCAACGUCCUCAACCUCCAAUGCAUCCCACCACAUGAUGAUGCCUGAAAAGCCUUGGUAUUUUG [C34U G120A U130A] | -4.02 |

Source: the RNAGym collection of RNA variant scans (doi:10.1073/pnas.2313332121)
